Values quoted from earlier work as cited in paper PMC3601010, “The complete N-terminal extension of heparin cofactor II is required for maximal effectiveness as a thrombin exosite 1 ligand” (BMC Biochemistry, 2013).

Biological target: T1, thrombin (Homo sapiens, UniProt P00734)
T1 construct: purchased Enzyme Research, South Bend, IN; host or cells: HCII 1-75 probe made in house in E. coli TOP10
Conditions: heparin, heparan sulfate, or dermatan sulfate; ref [7]-[11]
Text: Heparin cofactor II (HCII) is a 66 kDa plasma protein and member of the serpin superfamily of protease inhibitors (reviewed in [3]). It regulates the key coagulation protease thrombin by trapping it in a covalently-linked denaturation-resistant complex. Thrombin-complexed HCII is cleaved at its reactive center peptide bond, while thrombin in the inhibitory complex, by analogy to enzymes in other serpin-enzyme complexes, is conformationally inactivated by active site distortions that render it incapable of completing the catalytic cycle of a proteolytic enzyme. The r ...

B1: HCII: 66 kDa plasma protein and member of the serpin superfamily of protease inhibitors (protein, UniProt P05546 20-499, looked up)
Heparin cofactor 2: GSKGPLDQLEKGGETAQSADPQWEQLNNKNLSMPLLPADFHKENTVTNDWIPEGEEDDDYLDLEKIFSEDDDYIDIVDSLSVSPTDSDVSAGNILQLFHGKSRIQRLNILNAKFAFNLYRVLKDQVNTFDNIFIAPVGISTAMGMISLGLKGETHEQVHSILHFKDFVNASSKYEITTIHNLFRKLTHRLFRRNFGYTLRSVNDLYIQKQFPILLDFKTKVREYYFAEAQIADFSDPAFISKTNNHIMKLTKGLIKDALENIDPATQMMILNCIYFKGSWVNKFPVEMTHNHNFRLNEREVVKVSMMQTKGNFLAANDQELDCDILQLEYVGGISMLIVVPHKMSGMKTLEAQLTPRVVERWQKSMTNRTREVLLPKFKLEKNYNLVESLKLMGIRMLFDKNGNMAGISDQRIAIDLFKHQGTITVNEEGTQATTVTTVGFMPLSTQVRFTVDRPFLFLIYEHRTSCLLFMGRVANPSRS
modifications: plasma-derived
- increase of thrombin inhibition rate by GAGs: three to four orders of magnitude
